# Data: paper PMC9807187
# Biological target: FLAG-tagged METTL3, wild type (UniProt Q8C3P7)
# Test: co-IP
# UniProt Q8C3P7, sequence (Q8C3P7 whole entry): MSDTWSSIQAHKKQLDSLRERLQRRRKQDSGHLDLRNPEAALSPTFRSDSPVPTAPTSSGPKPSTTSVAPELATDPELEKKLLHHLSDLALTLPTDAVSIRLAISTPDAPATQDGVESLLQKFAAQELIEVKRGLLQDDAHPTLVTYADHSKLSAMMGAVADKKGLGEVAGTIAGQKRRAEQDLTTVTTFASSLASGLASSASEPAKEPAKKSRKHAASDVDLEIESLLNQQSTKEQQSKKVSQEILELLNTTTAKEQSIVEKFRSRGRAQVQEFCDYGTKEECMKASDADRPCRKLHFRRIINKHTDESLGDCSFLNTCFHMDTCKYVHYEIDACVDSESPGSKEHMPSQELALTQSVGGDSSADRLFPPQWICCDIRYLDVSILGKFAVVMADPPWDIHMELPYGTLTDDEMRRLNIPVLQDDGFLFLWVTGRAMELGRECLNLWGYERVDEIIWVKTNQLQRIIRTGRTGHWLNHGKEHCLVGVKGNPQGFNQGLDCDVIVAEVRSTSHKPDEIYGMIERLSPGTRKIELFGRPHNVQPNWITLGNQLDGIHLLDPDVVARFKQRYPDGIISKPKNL
substance,measurement,value
"HA-p53 25,26,53,54 (p53 L25Q,Q26S,F53Q,F54S mutant) (from UniProt P02340 1-390) (natural protein)",reduction of binding against wild-type p53,50%
